Experiment [1] concerns the target T1, HA of A/California/04/2009 (H1N1) (influenza A virus (H1N1), UniProt P26140 18-529). The experiment is described as follows: ELISA (highest dilution tested 1/50,000).
Experiment [2] has as its target HA of A/duck/Czechoslovakia/1956 (H4). The experiment is described as follows: ELISA, recombinant HA. A general note: An ELISA detects its analyte on a solid surface through an enzyme-linked reagent.
Experiment [3] deals with T1, HA of A/California/04/2009 (H1N1). Briefly: ELISA, recombinant HA.
The target in experiment [4] is HA of A/duck/Czechoslovakia/1956 (H4). Briefly: ELISA, recombinant HA. This is another data set of the same source.
Experiment [5] deals with T1, HA of A/California/04/2009 (H1N1). The experiment is described as follows: ELISA, recombinant HA. The source holds these as a separate data set.
Experiment [6] has the same target. The experiment is described as follows: BLI, Fab on immobilized biotinylated HA. (In BLI a coated tip is dipped into the sample, and binding shifts an interference pattern.)
The target is the same in experiment [7]. Briefly: BLI, Fab on immobilized biotinylated HA. This is another data set of the same source.
Experiment [8] addresses HA of A/Hong Kong/1/1968 (H3N2) (influenza A virus (H3N2), UniProt Q91MA7 17-530).
The target of experiment [9] is HA of A/Singapore/1/1957 (H2) (influenza A virus (H2), UniProt Q67333 16-525).

Where a chain is given by its changes, count along the chain named. Names and notes keep the numbering of the source. Where two headings read alike, the source gives them in different places.

This is an account of results in patent US20210252150A1 (VANDERBILT UNIVERSITY, published 2021).

B1: H5.31 (antibody, V domains shown)
VH: EVQLVQSGGGLVQPGGSLRLSCEASRFTSSSYWITWVRQAPGKGLEWVANIKQDGSEKYFVDSVKGRFTISRDNASNSLYLQMSSLRAEDTAVYYCARGFLERLLLGRQGAYYYGMDVWGQGTTVTVSS
VL: DIQMTQSPSSLSASVGDRVTMTCRASQSISSSLNWYQQKPGKAPKLLIYAASNLQSGVPSRFSGSGSGTDFTLTISSLQPEDFATYYCQQSYTMPPELTFGGGTKVQIK
As for B1, in experiment [1], the EC50 – broadly, the concentration giving half of the maximal effect – was found to be 0.045 mg/L.

B2: H5.28 (antibody, V domains shown)
VH: EVQLVESGGGLVQPGGSLRLSCAASGFTFSTYWMTWVRQAPGKGLEWVANINQDGGEKYFVDSVKGRFTISRDNAKNSLFLQMNTLRAEDTAVYYCARGFLERLLLGRQGAYYYGMDVWGQGTTVTVSS
VL: B1 VL with T20S, S28I, T93S, M94T, Q107E
Molecule B2 had an EC50 in experiment [1] of 0.074 mg/L.

B3: UCA (antibody, V domains shown)
VH: QVQLQESGPGLVKPSETLSLTCTVSGGSVSSGSYYWSWIRQPPGKGLEWIGYIYYSGSTNYNPSLKSRVTISVDTSKNQFSLKLSSVTAADTAVYYCARGTEDLGYCSGGSCPNHWGQGTLVTV
VL: not shown
Take B3: the EC50 in experiment [2] came out at 0.025 mg/L; in [3] it was 0.14 mg/L; in experiment [4], 0.013 mg/L; in experiment [5], 0.051 mg/L.

B4: FluA-20 UCA Fab (unmutated common ancestor of FluA-20) (Fab, V domains shown)
VH: B3 VH
VL: not shown
With B4, the Kd in experiment [6] and in experiment [7] was 1.43 µM in each case.

B5: FluA-20 (hybridoma-produced IgG) (antibody, V domains shown)
VH: QVQLQESGPGLVKPSETLSLTCSVSGVSVTSDIYYWTWIRQPPGKGLEWIGYIFYNGDTNYNPSLKSRVTMSIDTSKNEFSLRLTSVTAADTAVYFCARGTEDLGYCSSGSCPNHWGQGTLVTVSS
VL: DIQMTQSPSSLSASIGDRVTITCRPSQNIRSFLNWFQHKPGKAPKLLIYAASNLQSGVPSRFSGSGSGTEFTLTIRSLQPEDFATYYCQQSYNTPPTFGQGTKVEIK
Consider B5, for which the EC50 was determined as 0.013 mg/L in [2] and 0.007 mg/L in [4].

B6: rFluA-20 light chain mutant N53A (antibody, V domains shown)
VH: B5 VH
VL: B5 VL with N53A
B6: the EC50 in experiment [8] came out at 0.06 mg/L; in experiment [9], 0.16 mg/L.

B7: rFluA-20 heavy chain mutant E97A (antibody, V domains shown)
VH: B5 VH with E102A
VL: B5 VL
On to B7, for which the results for the EC50 in experiment [8] and in experiment [9] were 0.07 mg/L and 0.13 mg/L, respectively.

B8: rFluA-20 (recombinant FluA-20 IgG) (antibody, V domains shown)
VH: B5 VH
VL: B5 VL
Take B8: the values for the EC50 in experiment [2] and in [4] were 0.018 mg/L and 0.007 mg/L, respectively.

B9: rFluA-20 heavy chain mutant T96A (antibody, V domains shown)
VH: B5 VH with T101A
VL: B5 VL
As for B9, the EC50 turned out to be 0.1 mg/L in experiment [8] and 0.07 mg/L in experiment [9].

B10: rFluA-20 heavy chain mutant Y100aA (antibody, V domains shown)
VH: B5 VH with Y106A
VL: B5 VL
With B10, the EC50 in experiment [8] was 0.07 mg/L. For the same molecule, the “EC50 fold over wild-type rFluA-20” value in [9] was greater than 100 fold.

B11: rFluA-20 heavy chain mutant Y34A (antibody, V domains shown)
VH: B5 VH with Y34A
VL: B5 VL
As to B11, the EC50 in experiment [8] was 0.07 mg/L; in experiment [9] it was 0.11 mg/L.
